The target in the assay is GST-LOV2GIV (L) (Avena sativa | not stated). Kind of assay: pull-down.

Chain of His-Gαi3 (P08753 whole entry): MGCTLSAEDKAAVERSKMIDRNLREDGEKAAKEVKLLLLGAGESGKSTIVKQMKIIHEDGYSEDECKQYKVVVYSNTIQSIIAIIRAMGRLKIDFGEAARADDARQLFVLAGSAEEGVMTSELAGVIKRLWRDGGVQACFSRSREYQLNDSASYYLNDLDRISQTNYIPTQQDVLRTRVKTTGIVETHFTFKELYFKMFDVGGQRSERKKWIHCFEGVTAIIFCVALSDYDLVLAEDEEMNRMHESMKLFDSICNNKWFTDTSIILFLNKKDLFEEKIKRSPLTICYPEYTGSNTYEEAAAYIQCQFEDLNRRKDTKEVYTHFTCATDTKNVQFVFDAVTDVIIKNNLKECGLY

For the substance “His-Gαi3 (from UniProt P08753 1-354) (natural protein)”, the fold binding, lit over dark conformation of LOV2GIV was 3 fold.

(Values after doi:10.1101/2020.08.17.253781.)
